# Patent EP4703383A1 (Shenzhen Genuine Biomedical Technology Co., Ltd, dated 2026)
# Positions count from the first letter of the chain named. In names and notes the source's numbering stands.
# T1: extracellular segment of human PRLR protein with avi-(his)6 tag (hPRLR-ECD-avi-his) (human, UniProt P16471 25-234)
# T1 construct: The assays say only 'monomeric human PRLR extracellular domain / ECD'; also called human PRLR extracellular domain; monomeric PRLR ECD
# T1 sequence: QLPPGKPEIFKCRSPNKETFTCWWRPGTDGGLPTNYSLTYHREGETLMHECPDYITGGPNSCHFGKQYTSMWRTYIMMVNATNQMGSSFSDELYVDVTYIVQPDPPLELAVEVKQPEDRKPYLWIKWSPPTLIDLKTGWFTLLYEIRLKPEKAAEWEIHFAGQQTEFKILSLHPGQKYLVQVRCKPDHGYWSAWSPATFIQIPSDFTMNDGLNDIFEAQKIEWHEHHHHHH
# B1: HP-PR01D12 (antibody, V domains shown)
# VH: EVMLVESGGGLVQPGGSRKLSCAASGFTFSSFGMNWVRQAPEKGLEWVAYISSGSSIIYYADTVKGRFTISRDNPKNTLFLQMTSLRSEDTAMYYCTRFYGYIPFDYWGQGTTLTVSS
# VL: DIVMTQSPAIMSASPGEKVTMTCSASSSLIYMHWYQQKSSTSPKLWIYDTSKLASGVPGRFSGSGSGNSYSLTTSSMEAEDVATYYCFQGSGYPLTFGGGTKLEIK
# notes: also called Antibody No. 20
# B2: HP-PR01C02 (antibody, V domains shown)
# VH: DVHLVESGPGLVKPSQSLSLTCTVTGYSITSDYAWNWIRQFPGNKLEWMGYISYSGSTGYSPSLKSRVSITRDTSKNQFFLQLNSVTTEDTATYFCARNNWAFDFWGQGTTLTVSS
# VL: DIVLTQSPAIMSASPGEKVTMTCSASSSVNYMHWYQQKSGTSPKRWIYDTSKLASGVPARFSGSGSGTSYSLTISSMEAEDAATYYCQQWSSNPLTFGAGTKLELK
# notes: also called Antibody No. 22
# B3: H-PR-B03 (antibody, V domains shown)
# VH: QVQLKESGPGLVAPSQSLSITCTVSGFSLTGFGVNWFRQPPGRGLEWLGMIWGDGSTDYNSALKSRLSISKDNSKSQVFLKMNSLQTDDTARYYCARVLYYYGGNSFAYWGQGTLVTVSA
# VL: DVLMTQTPLSLPVSLGDQASISCRSSQSIVHSNGNTYLEWYLQKPGQSPKLLIYKVSSRFSGVPDRFSGSGSGTDFTLKISRVEAEDLGVYYCFQGSHVPYTFGGGTKLEIK
# notes: also called Antibody No. 17
# B4: HP-PR02E11 (antibody, V domains shown)
# VH: QVQLQQSGPGLVAPSQSLSITCTVSGFSLTSYGVNWVRQPPGKGLEWLGIIGAGGSTNYNSALMSRLSISKDNSKSQVFLKMNSLQTDDTAMYYCARSLYYYGSSSFAYWGQGTLVTVSA
# VL: B3 VL with V2I, L3V, S58N, Y101W, I111L
# notes: also called Antibody No. 19
# B5: H-PR-B06 (antibody, V domains shown)
# VH: DVKLVESGGGLVKPGGSLKLACAASGFTFSSYTMSWVRQTPEKRLEWVATISSGGSYTYYPDSVKGRFTISRDNAKNTLYLQLSSLKSEDTAMYYCTRDRYYSTTPDWYFDVWGAGTTVTVSS
# VL: DIVLTQSPATLSVTPGDSVSLSCRATQIIFNNLHWYQQKSHESPRLLITYTSQSISGIPSRFSGSGSGTDFTLTINSVETEDFGMYFCQQSNTWPRTFGGGTKLEIK
# notes: also called Antibody No. 18
# B6: P-PR-D04H (antibody, V domains shown)
# VH: QVQLQQPGSELVRPGASVKLSCKASGYTFTSYWMHWVKQRPGQGLEWIGNIYPGSGSTNYDEKFKSKATLTVDTSSSTAYMQLSSLTSEDSAVYYCTRGNYRYYFDYWGQGTTLTVSS
# VL: not shown
# notes: also called Antibody No. 9
# B7: P-PR-C08H (antibody, V domains shown)
# VH: QVQLQQPGSELVRPGASVKLSCKASGFTFTTYWVHWVKQRPGQGLEWIGNISPGSGSTNYDEKFKSKASLTVDTFSNTAYMQLSSLTSEDSAVYYCIRHSGNYFNAMDYWGQGTTVTVSS
# VL: DIVMTQAAPSVPVTPGESVSISCRSSKSLLHSNGNTYLYWFLQRPGQSPQLLIYRMSNLASGVPDRFSGSGSGTAFTLRISRVEAEDVGVYYCMQHLEYPLTFGAGTKLELK
# notes: also called Antibody No. 6
# B8: P-PR-G02W (antibody, V domains shown)
# VH: B7 VH with V116L
# VL: B7 VL
# notes: also called Antibody No. 11
# B9: P-PR-H04W (antibody, V domains shown)
# VH: B7 VH with T115S
# VL: B7 VL with L101F, A105S, L111I
# notes: also called Antibody No. 12
# B10: P-PR-C04W (antibody, V domains shown)
# VH: B7 VH
# VL: B7 VL
# notes: also called Antibody No. 15
# B11: P-PR-C07H (antibody, V domains shown)
# VH: EVQLQQSGAELVRPGTSVQISCKASGYTFTNNWLAWIKQRPGHGLEWIGDIYPGGVYTNYNEKFKGKATLTADTSSSTAYMQLSSLTSEDSAVYFCYYGDFWSAYWGQGTLVTVSA
# VL: B7 VL
# notes: also called Antibody No. 5
# B12: P-PR-D06H (antibody, V domains shown)
# VH: B7 VH with Y32F, G56T, D61N, S66N, V116L
# VL: B7 VL with S20T, N35K, R55W, L101F, A105V
# notes: also called Antibody No. 16; P-PR-D06W
# B13: P-PR-C04H (antibody, V domains shown)
# VH: B7 VH with S55G
# VL: B7 VL with L101F, A105S, L111I
# notes: also called Antibody No. 2
# B14: P-PR-C06H (antibody, V domains shown)
# VH: B7 VH with T115S
# VL: B7 VL with P12F, R55Q, L59R, F67L, L101F, A105G, L111I
# notes: also called Antibody No. 4
# B15: P-PR-C05H (antibody, V domains shown)
# VH: B7 VH with Y32F, G56T, D61N, S66N, T115S
# VL: B7 VL with V90I
# notes: also called Antibody No. 3
# B16: P-PR-B09W (antibody, V domains shown)
# VH: B7 VH with Y32F, S55G, G56T, T115S
# VL: B7 VL
# notes: also called Antibody No. 10
# B17: P-PR-C02H (antibody, V domains shown)
# VH: B7 VH with K19R, T115S
# VL: B7 VL with A8T, T14A, S32T, N35Y
# notes: also called Antibody No. 1
# B18: P-PR-C12H (antibody, V domains shown)
# VH: B7 VH with T30A, G56V, V116L
# VL: B7 VL with P12L, L52V, L101F
# notes: also called Antibody No. 7
# B19: P-PR-D01H (antibody, V domains shown)
# VH: B7 VH with S55G, S84G, V116L
# VL: B7 VL
# notes: also called Antibody No. 8
# B20: P-PR-H11W (antibody, V domains shown)
# VH: B7 VH with Y32F, G56T, D61N, S66N, T115S
# VL: B7 VL with L101F, A105G, L111I
# notes: also called Antibody No. 14
# B21: P-PR-H07W (antibody, V domains shown)
# VH: B7 VH with T30A, G56V, V116L
# VL: B7 VL with L101F, A105G, L111I
# notes: also called Antibody No. 13
# Target: T2, recombinant mesothelin protein with the same tag
# T2 construct: Control antigen of the species-specific ELISA; also called Control protein
# Assay: ELISA, coated antigen 1 ug/mL, antibody 10 ug/mL
row,absorbance at 450nm,Binder
1,0.09,B1
2,0.072,B2
3,0.067,B3
4,0.111,B4
5,0.054,B5
6,0.065,B6
7,0.065,B7
8,0.07,B8
9,0.064,B9
10,0.095,B10
11,0.062,B11
12,0.137,B12
13,0.09,B13
14,0.084,B14
15,0.116,B15
16,0.102,B16
17,0.098,B17
18,0.091,B18
19,0.068,B19
20,0.054,B20
21,0.069,B21

# Target: T1, extracellular segment of human PRLR …
# Assay: ELISA, coated antigen 1 ug/mL, antibody 10 ug/mL
row,absorbance at 450nm,Binder
1,2.2,B7
2,2.29,B11
3,2.48,B12
4,2.15,B13
5,2.1,B14
6,2.14,B15
7,2.32,B16
8,2.14,B17
9,2.24,B18
10,2.02,B19
11,2.32,B20
12,2.45,B21

# Target: T1, extracellular segment of human PRLR …
# Assay: BLI (Octet), antibody on Protein A sensor, monomeric PRLR ECD in solution, 1:1 fit
Kd [nM],koff [s⁻¹],kon [M⁻¹ s⁻¹],Binder
0.00177,2.44e-07,138000,B7
3.64,0.000386,106000,B11
3.38,0.000389,115000,B12
2.71,0.000663,244000,B14
< 0.001,1.3e-07,209000,B15
1.53,0.000287,187000,B16
0.0016,2.44e-07,153000,B17
2.7,0.00033,122000,B18
0.00105,2.44e-07,232000,B19
